The values below come from patent EP4725967A1 (Nanjing Probio Biotech Co., Ltd., dated 2026).

Test [1] addresses T1, human CCR8 (human, UniProt P51685 1-355).
T1 construct: whole, on cells; also called hu-CCR8; CC chemokine receptor 8
Nature of the test: flow cytometry, hybridoma supernatant on HEK293/hu-CCR8 cells.

Test [2] concerns the target T1, human CCR8. In words: flow cytometry on HEK293/hu-CCR8 cells, chimeric antibody (FIG. 1A).
Test [3] addresses T1, human CCR8. In words: flow cytometry on HEK293/hu-CCR8 cells, chimeric antibody (FIG. 1B). A general note: Flow cytometry measures light scatter and fluorescence of single cells or particles in a stream.
For test [4], the target named is T1, human CCR8. In words: flow cytometry on HEK293/hu-CCR8 cells (FIG. 5A).

T1 sequence (P51685 whole entry): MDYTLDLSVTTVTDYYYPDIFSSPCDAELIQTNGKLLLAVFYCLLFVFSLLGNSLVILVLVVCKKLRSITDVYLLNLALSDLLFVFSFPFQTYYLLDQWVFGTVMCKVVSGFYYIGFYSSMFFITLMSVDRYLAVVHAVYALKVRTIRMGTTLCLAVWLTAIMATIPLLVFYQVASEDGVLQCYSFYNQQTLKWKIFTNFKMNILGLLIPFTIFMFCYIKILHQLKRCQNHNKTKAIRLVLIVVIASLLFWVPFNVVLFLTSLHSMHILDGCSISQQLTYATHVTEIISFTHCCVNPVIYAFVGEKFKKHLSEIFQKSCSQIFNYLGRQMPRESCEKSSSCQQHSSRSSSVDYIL

B1: antibody produced by monoclonal clone 154G7C3 (murine, hybridoma) (antibody, V domains shown)
VH: QVQLQQSGAELVRPGASVTLSCKTSGYTFTDFEMHWVKQTPVHGLEWIGAFDPETGGTAYNQKFKGKAILTADKSSSTAYMELRSLTSEDSAVYYCTGRLRRHFDSWGQGTTLTVSS
VL: DVVMTQTPLSLPVSLGDQASISCRSSQSLVHSYGNTYLHWYLQKPGQSPKLLIYKVSNRFSGVPDRFSGSGSGTDFTLKISRVEAEDLGVYFCSQSTHVPFTFGSGTKLEIK
notes: Mouse antibody in hybridoma supernatant; Taking 27/28 as murine rests only on the order of listing
For B1, the binding result in the test with human CCR8 [1] is reported as “binds”.

B2: chimeric antibody 154G7C3 (antibody, human IgG1, kappa, V domains shown)
VH: QVQLQQSGAELVRPGASVTLSCKTSGYTFTDFEMHWVKQTPVHGLEWIGAFDPETGGTAYNQKFKGKAILTADKSSSTAYMELRSLTSEDSAVYYCTGRLRRHFDSWGQGTTLTVSS
VL: DVVMTQTPLSLPVSLGDQASISCRSSQSLVHSYGNTYLHWYLQKPGQSPKLLIYKVSNRFSGVPDRFSGSGSGTDFTLKISRVEAEDLGVYFCSQSTHVPFTFGSGTKLEIKR
notes: Murine variable regions on human IgG1/kappa
Turning to B2, the binding result with human CCR8 [2] is listed as “binds”.

B3: chimeric antibody 224E9A3 (antibody, human IgG1, kappa, V domains shown)
VH: EVQLVESGGGLVQPKGSLKLSCAASGFTFNTYAMYWVCQAPGKGLEWVARIRSKSNNYATYYADSVKDRFTISRDDSQSMLYLQMNNLKTEDTAMYYCVRGGRGNYLYAMDYWGQGTSVTVSS
VL: DIVMTQAAPSVPVTPGESVSISCRSSKSLLHSNGNTYLYWFLQRPGQSPQLLIYRMSNLASGVPDRFSGSGSGSAFTLRISRVEAEDVGVYYCMQHLEYPFTFGSGTKLEIKR
notes: as for B2
As to B3, the binding result with human CCR8 [3] is “binds”.

B4: antibody produced by monoclonal clone 224E9A3 (murine, hybridoma) (antibody, V domains shown)
VH: EVQLVESGGGLVQPKGSLKLSCAASGFTFNTYAMYWVCQAPGKGLEWVARIRSKSNNYATYYADSVKDRFTISRDDSQSMLYLQMNNLKTEDTAMYYCVRGGRGNYLYAMDYWGQGTSVTVSS
VL: DIVMTQAAPSVPVTPGESVSISCRSSKSLLHSNGNTYLYWFLQRPGQSPQLLIYRMSNLASGVPDRFSGSGSGSAFTLRISRVEAEDVGVYYCMQHLEYPFTFGSGTKLEIK
notes: Mouse antibody in hybridoma supernatant
As to B4, the binding result in the test with human CCR8 [1] was “binds”.

B5: chimeric antibody 117G9F9 (antibody, human IgG1, kappa, V domains shown)
VH: EVQLVESGGGLVQPKGSLKLSCAASGFSFNTYAMNWVRQAPGKGLEWVARIRSKSNYYATYYADSVKDRFTISRDDSESMLYLQMNNLKTEDTAMYYCVRGGNSYGSSYFDYWGQGTTLTVSS
VL: DIVMTQAAPSVPVTPGESVSISCRSSKSLLHRNGNTYLYWFLQRPGQSPQLLIYRMSNLASGVPDRFSGSGSGTAFTLRISRLEAEDVGVYYCMQHLEYPFTFGAGTKLELKR
notes: as for B2
Take B5: the binding result with human CCR8 [2] is recorded as “binds”.

B6: humanized antibody 154G7C3-VH1.1-VL2 (antibody, human IgG1, kappa, V domains shown)
VH: QVQLVQSGAEVKKPGASVKVSCKVSGYTFTDFEMHWVRQAPGKGLEWIGAFDPETGGTAYNQKFKGRVTMTEDTSTDTAYMELSSLRSEDTAVYYCTGRLRRHFDSWGQGTLVTVSS
VL: DIVMTQSPLSLPVTPGEPASISCRSSQSLVHSYGNTYLHWYLQKPGQSPQLLIYKVSNRFSGVPDRFSGSGSGTDFTLKISRVEAEDVGVYYCSQSTHVPFTFGQGTKLEIKR
notes: Human IgG1/kappa
As to B6, the binding result in the test with human CCR8 [4] is “binds”.

B7: antibody produced by monoclonal clone 117G9F9 (murine, hybridoma) (antibody, V domains shown)
VH: EVQLVESGGGLVQPKGSLKLSCAASGFSFNTYAMNWVRQAPGKGLEWVARIRSKSNYYATYYADSVKDRFTISRDDSESMLYLQMNNLKTEDTAMYYCVRGGNSYGSSYFDYWGQGTTLTVSS
VL: DIVMTQAAPSVPVTPGESVSISCRSSKSLLHRNGNTYLYWFLQRPGQSPQLLIYRMSNLASGVPDRFSGSGSGTAFTLRISRLEAEDVGVYYCMQHLEYPFTFGAGTKLELK
notes: Mouse antibody in hybridoma supernatant; Taking 31/32 as murine rests only on the order of listing
In the case of B7, in the test with human CCR8 [1], the binding result is reported as “binds”.

B8: humanized antibody 117G9F9-VH2.1-VL1 (antibody, human IgG1, kappa, V domains shown)
VH: EVQLVESGGGLVKPGGSLRLSCAASGFSFNTYAMNWVRQAPGKGLEWVGRIRSKSNYYATYYADSVKDRFTISRDDSKNTLYLQMNSLKTEDTAVYYCVRGGNSYGSSYFDYWGQGTLVTVSS
VL: DIVMTQSPLSLPVTPGEPASISCRSSKSLLHRNGNTYLYWYLQKPGQSPQLLIYRMSNLASGVPDRFSGSGSGTDFTLKISRVEAEDVGVYYCMQHLEYPFTFGQGTKLEIKR
notes: Human IgG1/kappa
As to B8, in the test with human CCR8 [4], the binding result is reported as “binds”.
